Read-outs that look alike come from different tables or passages of the source.
Legend:
Assay in all cases: FACS binding, CHO-K1 cells
[1] = target: T1, human PD-L1 (human, UniProt Q9NZQ7 19-290)
[2] = target: T1, human PD-L1; remark: listed apart in the source
[3] = target: T1, human PD-L1; remark: listed apart in the source

T1 sequence (Q9NZQ7 19-290): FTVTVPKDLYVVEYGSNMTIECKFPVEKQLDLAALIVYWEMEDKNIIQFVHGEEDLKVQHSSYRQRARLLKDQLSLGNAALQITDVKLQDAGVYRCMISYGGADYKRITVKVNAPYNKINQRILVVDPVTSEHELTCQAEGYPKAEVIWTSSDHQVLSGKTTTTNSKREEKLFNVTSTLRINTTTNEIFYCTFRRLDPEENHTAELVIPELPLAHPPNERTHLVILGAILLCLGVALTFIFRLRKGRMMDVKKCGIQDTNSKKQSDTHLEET

B1: CLDN18L-E-pdl1a (bispecific antibody)
heavy: not shown
light: DIVMTQSPLSLPVTPGEPASISCKSSQTLLNSGNQKNYLTWYLQKPGQSPQLLIYWASTGESGVPDRFSGSGSGTDFTLKISRVEAEDVGVYYCQNAYFYPFTFGGGTKVEIKRTVAAPSVFIFPPSDEQLKSGTASVVCLLNNFYPREAKVQWKVDNALQSGNSQESVTEQDSKDSTYSLSSTLTLSKADYEKHKVYACEVTHQGLSSPVTKSFNRGECEPKSSDKTHTSPPSPEVQLVESGGGLVQPGGSLRLSCAASGRTFVTYGMGWFRQAPGKGREFVSAISWSGSMTSYGDSVKGRFTISRDNAKNTLYLQMNSLRPEDTAVYYCAAALGAVVYTTREPYTYWGQGTLVTVSS
- EC50 [1]: 0.34 nM
- EC50 [2]: 0.262 nM
- EC50 [3]: 0.215 nM

Reference: patent US20230125301A1 (published 2023)
